The values below come from patent CN112592405A (BIOSION BIO TECH NANJING CO LTD, dated 2021).

The target of the assay is T1, 人BCMA-His抗原 (ACRO, Cat#BCA-H522y) (human, UniProt Q02223 1-54).
T1 construct: Bought recombinant protein; also called human BCMA-His; 人BCMA蛋白; not shown: His tag
T1 sequence (looked up): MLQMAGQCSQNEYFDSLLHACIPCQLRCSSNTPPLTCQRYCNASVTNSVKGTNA
As to the kind of experiment: indirect ELISA, plate coated with human BCMA-His at 2 μg/ml, detection with HRP goat anti-human Fcγ. (In general: An ELISA detects its analyte on a solid surface through an enzyme-linked reagent.)

B1: BCMA Benchmark1 (antibody sequence of GSK2857916) (antibody, human IgG1, kappa, V domains shown)
VH: QVQLVQSGAEVKKPGSSVKVSCKASGGTFSNYWMHWVRQAPGQGLEWMGATYRGHSDTYYNQKFKGRVTITADKSTSTAYMELSSLRSEDTAVYYCARGAIYDGYDVLDNWGQGTLVTVSS
VL: DIQMTQSPSSLSASVGDRVTITCSASQDISNYLNWYQQKPGKAPKLLIYYTSNLHSGVPSRFSGSGSGTDFTLTISSLQPEDFATYYCQQYRKLPWTFGQGTKLEIKR
notes: also called BCMA-BM1
Regarding B1, the binding result is recorded as “binds”.

B2: BCMA-VHH-2B11纳米抗体 (抗人BCMA纳米抗体, 含有Fc tag) (Fc fusion)
chain: QVQLVESGGGLVQAGGSLRLSCAASGGTFNNDNVGWFRQAPGKEREFVAVISWRGDGTDYADSVKGRFTISRDYAKKMVYLQMNSLQPKDTAVYYCAVGDGSRWRGAYAYWGQGTRVTVSS
notes: Expressed in Expi293F cells and purified on Protein A/G. It was tested as VHH with an Fc tag, about 35 kDa on SDS-PAGE; also called anti-human BCMA nanobody; not shown: Fc tag
Take B2: the binding result was “binds”.
